Like-named read-outs stand apart in the source and are kept apart here.
T1: CD14 (Homo sapiens, UniProt P08571)
T1 sequence (P08571 20-345): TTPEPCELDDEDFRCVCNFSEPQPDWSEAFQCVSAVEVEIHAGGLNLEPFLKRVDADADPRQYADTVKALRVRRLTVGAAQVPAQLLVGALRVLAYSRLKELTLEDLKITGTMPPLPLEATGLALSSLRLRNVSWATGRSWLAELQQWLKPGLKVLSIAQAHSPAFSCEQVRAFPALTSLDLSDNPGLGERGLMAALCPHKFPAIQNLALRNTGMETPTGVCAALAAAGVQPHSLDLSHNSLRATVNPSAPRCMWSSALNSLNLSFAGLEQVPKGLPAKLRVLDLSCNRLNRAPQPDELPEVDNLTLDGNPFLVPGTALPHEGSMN

B1: GzmA-C93S: Granzyme A variant with cysteine 93 substituted with serine; forms only monomers, retains enzymatic activity (protein)
chain: IIGGNEVTPHSRPYMVLLSLDRKTICAGALIAKDWVLTAAHCNLNKRSQVILGAHSITREEPTKQIMLVKKEFPYPSYDPATREGDLKLLQLMEKAKINKYVTILHLPKKGDDVKPGTMCQVAGWGRTHNSASWSDTLREVNITIIDRKVCNDRNHYNFNPVIGMNMVCAGSLRGGRDSCNGDSGSPLLCEGVFRGVTSFGLENKCGDPRGPGVYILLSKKHLNWIIMTIKGAV
modifications: left off: small tags and cut ends
B2: GzmA-S195A (protein)
chain: IIGGNEVTPHSRPYMVLLSLDRKTICAGALIAKDWVLTAAHCNLNKRSQVILGAHSITREEPTKQIMLVKKEFPYPCYDPATREGDLKLLQLMEKAKINKYVTILHLPKKGDDVKPGTMCQVAGWGRTHNSASWSDTLREVNITIIDRKVCNDRNHYNFNPVIGMNMVCAGSLRGGRDSCNGDAGSPLLCEGVFRGVTSFGLENKCGDPRGPGVYILLSKKHLNWIIMTIKGAV
modifications: left off: small tags and cut ends

Legend:
[1] = test system: Mtb H37Rv within primary CD14+ human monocytes; assay type: cell-based, Mycobacterium tuberculosis; settings: 200 nM GzmA, Mtb MOI 1, human monocytes
[2] = test system: LAMP1 (phagolysosome fusion); experiment: Confocal microscopy colocalization of BCG-GFP and LAMP1; assay type: cell-based, human; settings: compared with untreated controls
Method: Confocal microscopy and Stimulation Emission Depletion (STED) experiments. For confocal and STED microscopy experiments, cells were incubated on coverslips pre-treated with Cell-Tak (Corning #354240). At the time of fixation, cells were washed twice with 1×RT PBS, and then fixed in 4% paraformaldehyde for 15 min at 37° C. Slides were washed thrice for 5 min at RT with 1×PBS, and then blocked with 5% donkey serum (Cat. #017-000-121, Jackson ImmunoResearch, West Grove, PA) with 0.25% Tween-20 (Cat. #P9416, Sigma, St. Louis, MO) and True Stain Fc blocker (added only during blocking step) (Cat. #426101, Biolegend, San Diego, CA). Cells were then incubated overnight at 4° C. with primary antibody anti-GzmA (Cat. #MAB29051, R&D, Minneapolis, MN) at 12.5 μg/mL in blocking buffer, anti-PDIA1 (Cat. #MAB4236, R&D, Minneapolis, MN) at 12.5 μg/mL in blocking buffer, anti-LAMP1 at 12.5 ug/ml (Cat. #MAB4800, R&D, Minneapolis, MN), or anti-ATPSH (Cat. #ab110275, Abcam, Cambridge, UK) at 5 μg/mL in blocking buffer. To remove unbound antibody, cells were washed four times with 1×PBS at RT, and then incubated in the dark for 2 h with secondary antibody conjugated with Alexa Fluor 594 (Cat. #715-545-150, Jackson Immunoresearch, West Grove, PA) at 1:100 or Atto 647N (Cat. #ASR3248, Abcepta, San Diego, Ca) at 1:100. […]

[3] = test system: Connaught BCG within primary CD14+ human monocytes; assay type: cell-based; settings: for inhibition of intracellular mycobacterial replication (MGIA): 72 h
[4] = molecular target: TLR4 (Homo sapiens, UniProt O00206); experiment: Immunoprecipitation with anti-GzmA, probed for TLR4; settings: human monocyte lysates, infected and uninfected cells
[5] = test system: mycobacteria within iMac-WT mouse cells; assay type: cell-based; settings: human GzmA on mouse iMac-WT cells
[6] = test system: mycobacteria BCG-GFP; assay type: binding
[7] = molecular target: T1, CD14; experiment: Immunoprecipitation with anti-GzmA, probed for CD14; settings: human monocyte lysates, infected and uninfected cells
[8] = BLT esterase assay for GzmA enzyme activity; assay type: biochemical; settings: 120 pM protein; substrate BLT
Method: BLT esterase protocol for measuring GzmA enzyme activity. BLT esterase assays and calculation of specific activity were adapted from (Rasi et al., 2021; Rasi et al., 2022). Substrate Z-L-Lys-SBz1 hydrochloride (Sigma #C3647-25MG) was added to 96 well plates with a serial dilution between 19.5-2,500 μM. Assay buffer consisted of 50 mM Tris, 154 mM NaCl, pH 7.5 in presence of […] (5,5-dithio-bis-(2-nitrobenzoic acid) (DTNB) chromophore. 120 pM of protein was added to each well and substrate hydrolysis was quantified by measuring the absorbance at 405 nm.

Chain of TLR4 (O00206 24-839): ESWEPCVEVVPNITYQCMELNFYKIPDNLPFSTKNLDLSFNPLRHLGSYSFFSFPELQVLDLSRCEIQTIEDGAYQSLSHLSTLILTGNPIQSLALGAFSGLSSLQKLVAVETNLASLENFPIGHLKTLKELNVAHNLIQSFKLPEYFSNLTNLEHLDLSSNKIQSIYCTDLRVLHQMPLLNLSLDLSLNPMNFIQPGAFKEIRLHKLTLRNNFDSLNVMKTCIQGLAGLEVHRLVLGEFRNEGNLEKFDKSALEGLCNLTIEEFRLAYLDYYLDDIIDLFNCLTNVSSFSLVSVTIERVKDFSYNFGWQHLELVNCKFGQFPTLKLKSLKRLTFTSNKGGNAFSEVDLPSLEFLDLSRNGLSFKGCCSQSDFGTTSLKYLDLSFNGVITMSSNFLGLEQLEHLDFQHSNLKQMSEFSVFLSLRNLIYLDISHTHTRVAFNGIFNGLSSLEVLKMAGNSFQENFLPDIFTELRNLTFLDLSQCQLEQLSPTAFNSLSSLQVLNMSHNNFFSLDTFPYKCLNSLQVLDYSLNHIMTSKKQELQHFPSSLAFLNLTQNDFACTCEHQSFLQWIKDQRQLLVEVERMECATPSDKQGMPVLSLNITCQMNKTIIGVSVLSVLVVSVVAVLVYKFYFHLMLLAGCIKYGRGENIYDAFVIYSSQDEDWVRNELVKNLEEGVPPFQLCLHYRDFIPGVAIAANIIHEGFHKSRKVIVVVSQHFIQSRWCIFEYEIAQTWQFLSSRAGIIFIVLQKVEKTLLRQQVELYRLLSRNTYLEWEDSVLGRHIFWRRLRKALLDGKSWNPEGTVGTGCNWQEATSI

Molecule | inhibition of intracellular Mtb (MGIA) [1] | colocalization between LAMP1 and BCG-GFP [2] | effect of monomeric GzmA on protective effects of GzmA-WT (mixing experiment) [3] | intracellular replication of pre-opsonized mycobacteria (excess protein removed) [3] | inhibition of intracellular mycobacterial replication (MGIA) [3] | binding to TLR4 (immunoprecipitation) [4] | inhibition of mycobacterial growth in iMac-WT cells [5] | binding to mycobacteria [6] | binding to CD14 (immunoprecipitation) [7] | enzymatic (esterase) activity, cleavage of BLT [8] | inhibition of intracellular Mtb (MGIA) ([1]; listed as recombinant enzymatically inactive GzmA) | GzmA inhibitory activity after CD14 neutralization (MGIA) [3] | GzmA inhibitory activity after TLR2 neutralization (MGIA) [3]
B1 | did not | fails to direct mycobacteria into the phagolysosome | partially inhibit the protective effects of GzmA-WT | cannot | loses its inhibitory activity | does not | did not | able to bind mycobacteria | does not | cleaved similar amounts of BLT as GzmA-WT |  |  | 
B2 | inhibited Mtb |  |  |  | inhibits the intracellular replication of mycobacteria |  | modestly inhibit mycobacterial growth | bound mycobacteria |  | loses its enzymatic activity | very potent at protecting against Mtb intracellular infection | lost their inhibitory activity | does not reverse
